Drawing on PMC11086051, this text covers binding result, Kd and IC50 for four molecules.

Data set [1] deals with T1, SpoVG (Borrelia burgdorferi, UniProt O51726 1-97).
T1 sequence: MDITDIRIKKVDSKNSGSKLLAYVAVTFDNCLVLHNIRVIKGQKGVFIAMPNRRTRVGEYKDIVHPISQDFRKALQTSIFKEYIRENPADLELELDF
As to the kind of experiment: competition.

In data set [2] the target is T1, SpoVG. In words: EMSA.
The target of data set [3] is T1, SpoVG. In words: competition. The source holds these as a separate data set.

Broadly, the Kd is the equilibrium constant for the complex coming apart. High values mean lower affinity, low ones higher affinity. What is called IC50 is the concentration needed to halve the response being measured. A higher IC50 goes with weaker potency in that assay.

For UAUGUACUUUAAGCGGGAGGCUUAUAA (ssRNA) [RNA-17], in data set [1], the binding result is recorded as “binds”.
For the molecule UAUGUACAAAAAGCGGGAGGCUUAUAA (ssRNA) [RNA-03], the binding result in data set [1] is on record as “binds”.
Regarding UAUGUACUUUUUGCGGGAGGCUUAUAA (ssRNA) [spoVG RNA], binding in data set [2] was characterised by a dissociation constant (Kd) of 0.059 µM. In addition, in data set [3], the concentration for half-maximal inhibition (IC50) is 1.03 µM.
For the molecule UAUGUACUUAAAGCGGGAGGCUUAUAA (ssRNA) [RNA-20], the binding result in data set [1] was “binds”.
